Here are results for three molecules from US20190002571A1, “INHIBITION OF CCL5 LIGAND BINDING TO CCR5 RECEPTOR AND ALTERATION OF CCR5/CCL5 AXIS SIGNALING IN INFLAMMATION, CANCER, AUTOIMMUNE, AND OTHER CONDITIONS” (CytoDyn Inc., priority 2015, published 2019).

For assay [1], the target named is T1, human CCR5 (Homo sapiens, UniProt P51681). Description: Migration (chemotaxis) assay with CHO-K1-hCCR5 cells, ATPlite readout. More on the design: Production of the full length protein was confirmed by western blot; expressed in transfected cells; host or cells: CHO-K1. The settings on record: for concentrations at which CCL5 induced migration was inhibited: constant dose of CCL5 0.005 μM; for chemotactic response / direct induction of migration, agent alone: single agent over its concentration range (MVC 0.0045-10 μM; CCL5 0.0007-0.50 μM), FIG. 4, FIG. 5. The format is cell-based. The text has this:
This experiment was designed to investigate the role of PRO 140 on chemotaxis induced by CCL5 engagement of the CCR5 receptor on CHO-CCR5 target cells (CHO-K1 cell line).
a. Cell Lines: The CHO-K1 cell line was transfected with a human CCR5 expression plasmid and selected for expression. Production of the full length protein was confirmed by western blot. Fluorescence-activated cell sorting (FACS) analysis was used to sort for cells that expressed CCR5 on the surface and these cells were purified and expanded.
b. Methods: Migration assays were done in Multiscreen MC plates using CHO-K1-hCCR5 cells in the upper chamber and with media and test agents in the bottom chamber. The agents tested included: PRO 140, Maraviroc (MVC), CCL5, forskolin (FSK), and an IgG4 control as single agents, and PRO 140+CCL5, and Maraviroc+CCL5 as combined agents. The effects on the Chemotaxis Index were measured over a wide concentration range of the test substance. The Chemotaxis Index was calculated as the migration of cells into the lower chamber with a test substance divided by the migration of cells into the lower chamber without the test substance or with a control substance. Migration was measured using the ATPlite assay. All assays were performed in triplicate. Data analysis was determined by the Chemotaxis Index over a wide concentration range of the test substance. Dose ranges of test agents were as follows: PRO 140 was 0.0045-10 ug/ml; MVC was 0.0045-10 μM; CCL5 was 0.0007-0.50 μM; FSK was 0.0045-10 μM; IgG4 control was 0.0045-10 μg/ml.
(In general: ATP-based viability assays read luminescence as a measure of living cells.)

The target in assay [2] is T1, human CCR5. The assay is described as follows: cAMP accumulation in primary CD4+ CCR5+ T cells (radioimmunoassay). The settings on record: for cAMP accumulation (stimulated): single agent with rolipram 20 uM and forskolin 10 uM; for cAMP accumulation (stimulated) / cAMP accumulation (unstimulated, basal): PRO 140 1 ug/ml, CCL5 0.1 uM; for cAMP accumulation (unstimulated, basal): single agent with rolipram 20 uM, 37° C., 10 minutes; for effect on cAMP levels as single agent: single agents, CD4+ CCR5+ T cells. The format is cell-based. More on the design: Primary CD4+ cell lines were prepared from healthy human donors and grown for 7-10 days prior to sorting for CD4+ CCR5+ T cells; endogenous in cells; host or cells: primary human CD4+ CCR5+ T cells (PHA/IL-2 expanded PBMC, FACS sorted). The procedure: The first set of experiments was designed to see if PRO 140 has antagonist and/or agonist activity for alternative signaling pathways known to be activated downstream of CCR5 engagement, such as G-protein mediated modulation of intracellular cyclic AMP (cAMP) or specific tyrosine kinase activation.
a. Cell Lines: Primary CD4+ cell lines were prepared from healthy human donors and grown for 7-10 days prior to sorting for CD4+ CCR5+ T cells. PBMC were stimulated with 1 ug/ml of PHA-L Sigma (2E6/well in 24 well plates). PHA lines were expanded using 30 U/ml IL-2 for 24 hours after stimulation and every other day until FACS sorting for CD4+ CCR5+ T cells (on days 7-10). FACS sorting was done using anti-human CD4-percp-Cy5.5 clone RPA-T4, Mouse IgG1k, at 25 ug/ml, with a working concentration of 0.125 ug/ml. Anti-human CCR5-PE clone NP-6G4, Mouse IgG1k, concentration 25 ug/ml, working concentration 1.25 ug/ml was used.
b. Methods: Cell lines were assayed for cAMP levels in the absence or presence of rolipram (20 uM, a cyclic nucleotide phosphodiesterase-4 (PDF-4) inhibitor) with either no addition (basal cAMP) or in response to forskolin (FSK) (10 uM, a non-specific activator of cAMP synthesis), PRO 140 (1 ug/ml), forskolin+PRO 140, CCL5 (0.1 uM), CCL5+ forskolin, or PRO 140+ CCL5+ forskolin. Incubations (0.5E6 cells/ml) were conducted at 37° C. for 10 minutes and then terminated by addition of ice-cold 7.5% trichloroacetic acid (TCA). cAMP was quantified by radioimmunoassay. Statistical significance was determined by unpaired, one-tailed t test analysis using GraphPad prism software, version 4.0
(In general: Cyclic AMP is a second messenger, typically raised through Gs and lowered through Gi signalling.)

T1 sequence (P51681 whole entry): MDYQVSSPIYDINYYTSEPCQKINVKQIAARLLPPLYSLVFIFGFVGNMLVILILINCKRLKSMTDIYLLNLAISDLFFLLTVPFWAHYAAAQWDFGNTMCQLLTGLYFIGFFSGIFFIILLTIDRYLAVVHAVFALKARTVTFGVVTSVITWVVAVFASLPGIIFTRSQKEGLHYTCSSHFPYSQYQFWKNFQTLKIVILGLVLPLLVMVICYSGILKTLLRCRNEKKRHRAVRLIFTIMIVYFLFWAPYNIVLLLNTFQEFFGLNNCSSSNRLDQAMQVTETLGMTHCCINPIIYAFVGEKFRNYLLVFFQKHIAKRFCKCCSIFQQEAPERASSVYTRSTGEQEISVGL

Take Maraviroc: the “concentration range in which the chemotactic response was significant” value at human CCR5 [1] (MVC alone, FIG. 4) is given as “above 0.01 μM”. Moreover, at human CCR5 [1] (FIG. 5), the “concentrations at which CCL5 induced migration was inhibited” value is “above 0.05 μM”. Moreover, the “chemotactic response / direct induction of migration, agent alone” value at human CCR5 [1] (listed as MVC) is “significant direct induction of migration”.

On to “CCL5: C-C chemokine ligand 5, inflammatory chemokine also known as RANTES; natural CCR5 ligand [reference compound]”, for which the “chemotactic response / direct induction of migration, agent alone” value with human CCR5 [1] is reported as “pronounced”. Moreover, the “cAMP accumulation (stimulated)” value in the assay with human CCR5 [2] (FIG. 2) was 3800 fmoles cAMP/0.5E6 cells. Further, the “cAMP accumulation (unstimulated, basal)” value with human CCR5 [2] (no forskolin, FIG. 1) is 60 fmoles cAMP/0.5E6 cells. Besides, the “effect on cAMP levels as single agent” value in the assay with human CCR5 [2] was “decreased cAMP levels”.

B1: PRO 140: a known humanized monoclonal antibody CCR5 antagonist with anti-HIV properties (antibody, chains of the INN, looked up, V domains shown)
VH: EVQLVESGGGLVKPGGSLRLSCAASGYTFSNYWIGWVRQAPGKGLEWIGDIYPGGNYIRNNEKFKDKTTLSADTSKNTAYLQMNSLKTEDTAVYYCGSSFGSNYVFAWFTYWGQGTLVTVSS
VL: DIVMTQSPLSLPVTPGEPASISCRSSQRLLSSYGHTYLHWYLQKPGQSPQLLIYEVSNRFSGVPDRFSGSGSGTDFTLKISRVEAEDVGVYYCSQSTHVPLTFGQGTKVEIK
As for B1, in the assay with human CCR5 [1] (FIG. 4, PRO 140 alone, concentration range 0.0045-10 μg/ml), the “Chemotaxis Index (chemotactic response), agent alone” value stood at 0. Further, in the assay with human CCR5 [1] (FIG. 6, PRO 140 alone, concentration range 0.0045-4.0 μg/ml), the “Chemotaxis Index, agent alone” value was “less than 3”. Also, in the assay with human CCR5 [1] (FIG. 6), the “concentrations at which CCL5 induced migration was inhibited” value is reported as “above 0.4 μg/ml”. The “effect on CCL5 triggered decrease in cAMP levels” value with human CCR5 [2] (PRO 140 combined with CCL5) was “diminished the effects of CCL5 on decreasing cAMP”. The “cAMP accumulation (stimulated) in the presence of CCL5” value with human CCR5 [2] (rolipram + PRO 140 1 ug/ml + CCL5 0.1 uM + forskolin 10 uM, FIG. 2) was 5700 fmoles cAMP/0.5E6 cells. Also, in the assay with human CCR5 [2] (rolipram + PRO 140 1 ug/ml + CCL5 0.1 uM, no forskolin, FIG. 1), the “cAMP accumulation (unstimulated, basal) in the presence of CCL5” value came out at 107 fmoles cAMP/0.5E6 cells. The “cAMP accumulation (stimulated)” value with human CCR5 [2] (FIG. 2) is listed as 6300 fmoles cAMP/0.5E6 cells. Also, the “cAMP accumulation (unstimulated, basal)” value in the assay with human CCR5 [2] (no forskolin, FIG. 1) was 110 fmoles cAMP/0.5E6 cells. For the same molecule, the “effect on cAMP levels as single agent” value with human CCR5 [2] was “no effect on cAMP levels”.
